Experimental data published in patent US20030044847A1, “Methods for anlyzing interactions between proteins in live and intact cells” (priority 2001, published 2003).

T1: IFN-γR2/EBFP, IFN-γR2/GFP and IFN-γR1 chains (Homo sapiens, UniProt P15260)
T1 construct: expressed in transfected cells; host or cells: COS-1
T1 sequence (P15260 18-489): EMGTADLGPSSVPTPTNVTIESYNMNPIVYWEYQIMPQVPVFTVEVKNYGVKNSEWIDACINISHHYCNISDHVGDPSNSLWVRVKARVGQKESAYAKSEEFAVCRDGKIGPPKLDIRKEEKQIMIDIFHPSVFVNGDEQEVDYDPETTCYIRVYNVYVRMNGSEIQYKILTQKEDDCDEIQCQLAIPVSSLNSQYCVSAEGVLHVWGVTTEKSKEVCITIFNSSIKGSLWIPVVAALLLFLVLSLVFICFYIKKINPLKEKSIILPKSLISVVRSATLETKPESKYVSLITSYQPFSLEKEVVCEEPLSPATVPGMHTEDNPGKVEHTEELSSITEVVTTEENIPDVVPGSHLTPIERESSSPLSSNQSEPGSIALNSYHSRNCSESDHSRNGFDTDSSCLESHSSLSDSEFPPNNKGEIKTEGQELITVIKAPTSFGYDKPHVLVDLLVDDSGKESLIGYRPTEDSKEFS

T2: IFN-γ receptor complex (IFN-γR1/EBFP and IFN-γR2/GFP) (Homo sapiens, UniProt P15260)
T2 construct: EBFP (enhanced blue fluorescent protein); expressed in transfected cells; host or cells: COS-1
T2 sequence (P15260 18-489): T1 sequence (P15260 18-489)

T3: IFN-γR1/EBFP and IL-10R2/GFP (Homo sapiens, UniProt P15260)
T3 construct: expressed in transfected cells; host or cells: COS-1
T3 sequence (P15260 18-489): T1 sequence (P15260 18-489)

B1: IFN-γ: protein secreted by lymphocytes, specifically T-cells and NK-cells; ligand of the IFN-γ receptor complex (protein, UniProt P01579 24-161, looked up)
Interferon gamma: QDPYVKEAENLKKYFNAGHSDVADNGTLFLGILKNWKEESDRKIMQSQIVSFYFKLFKNFKDDQSIQKSVETIKEDMNVKFFNSNKKKRDDFEKLTNYSVTDLNVQRKAIHELIQVMAELSPAAKTGKRKRSQMLFRG

What was measured:
[1] = system: Chinese hamster ovary (CHO) q3 cells; assay: MHC class I antigen induction in CHO q3 cells transfected with human receptor chains; assay type: cell-based; settings: CHO q3 cells with human receptor chains with or without GFP and EBFP; FIG. 3
Text: The human receptor chains (IFN-γR1 and FL-IFN-γR2) without fluorescent proteins (left panel) and those with the fluorescent proteins (IFN-γR1/EBFP and FL-IFN-γR2/GFP) (right panel) were transfected into Chinese hamster ovary (CHO) q3 cells and MHC class I antigen induction measured in response to hamster and human IFN-γ. In the absence of the human receptor chains, Hu-IFN-γ has no effect on CHO cells (78, 87, 98). […] The CHO q3 cells were derived as follows. Hamster UCH-12 cells containing a stable translocation of human chromosome 3q were obtained from Carol Jones and David Patterson. UCH-12 cells were transfected with plasmid pJYI50R1.1 that encodes the intact HLAB7 gene (101) and the resulting cells designated q3. […] The stably transfected population of q3 cells was grown in F12 media supplemented with 10% FBS without selecting antibiotics. […] After three rounds of selection, individual clones were isolated by limiting dilution and amplified. […] MHC class I antigen induction in response to IFN-γ was performed as described (93).
Stable transformants were made in the CHO-derived cell line q3 by the Lipofectin method and limiting dilution clonal isolation.
Images, Spectra and Activity of human IFN-γR2/GFP and IFN-γR1/BFP transfected into COS-1 cells. […]

CHO cells = settings: absence of the human receptor chains; cited from earlier work
[2] = system: IFN-γR2/EBFP and IFN-γR2/GFP; assay: FRET between IFN-γR2/EBFP and IFN-γR2/GFP in COS-1 cells without IFN-γR1 chain; assay type: cell-based, human; settings: cells expressing only IFN-γR2 chains, no IFN-γR1 chain; FIG. 9 left panels
Text: (§1) FIG. 9 Fluorescence transfer between the FL-IFN-γR2/GFP and FL-IFN-γR2/EBFP chains. Both FL-IFN-γR2/GFP and FL-IFN-γR2/EBFP were transfected into COS-1 cells in the absence (left panels) or presence (right panels) of the unlabeled IFN-γR1 chain. Spectra were taken in the presence and absence of IFN-γ.
(§2) Construction of Vectors to Measure FRET in Cells and Transfections. As noted above, green and blue fluorescent proteins (GFP and BFP) were discovered and developed by a number of groups that enabled these fluorescent protein to be seen and localized in cells; and several groups have begun to use FRET to study the interactions of proteins in cells. In our studies, the IFN-γ receptor complex (FIG. 1) was used as the model system to evaluate the ability of FRET to provide insight into the structure of the receptor and to determine the molecular dynamics after attachment of the ligand IFN-γ to the receptor. In order to carry out these studies, IFN-γR1 and IFN-γR2 chains with BFP (or EBFP) and GFP fused to the carboxyl termini of their intracellular domains were constructed (FIG. 2, top). By fusing the DNA encoding the blue fluorescent protein (BFP) to the DNA encoding the carboxyl terminus of the IFN-γR1 chain and by fusing the DNA encoding GFP to the DNA encoding the carboxyl terminus of the IFN-γR2 chain, the cells produce IFN-γR11/BFP and IFN-γR2/GFP. […]

[3] = target: T1, IFN-γR2/EBFP, IFN-γR2/GFP and IFN-γR1 chains; assay: FRET between IFN-γR2/EBFP and IFN-γR2/GFP in COS-1 cells with unlabeled IFN-γR1 chain; assay type: cell-based; settings: cells expressing IFN-γR2/EBFP, FIG. 9 right panel
Text: as §1, §2

[4] = target: T2, IFN-γ receptor complex (IFN-γR1/EBFP and IFN-γR2/GFP); assay: FRET between IFN-γR1/BFP (EBFP) and IFN-γR2/GFP (matched pair) in single live COS-1 cells; assay type: cell-based
Text: A mammalian expression vector was used to express human interferon γ receptor chains one and two (IFN-γR1 and IFN-γR2) with blue- and green-fluorescent proteins (BFP and GFP) fused to the carboxyl terminus of the chains, respectively. A tandem vector was used so that both chains were expressed in COS-1 cells under the control of the EF-1 promoter. A single cell expressing both of these chains was used to carry out the experiment to examine the effect of human IFN-γ on the distance between the chains and to determine if the chains were associated prior to addition of ligand. This is accomplished by using FRET.
Construction of Vectors to Measure FRET in Cells and Transfections. As noted above, green and blue fluorescent proteins (GFP and BFP) were discovered and developed by a number of groups that enabled these fluorescent protein to be seen and localized in cells; and several groups have begun to use FRET to study the interactions of proteins in cells. In our studies, the IFN-γ receptor complex (FIG. 1) was used as the model system to evaluate the ability of FRET to provide insight into the structure of the receptor and to determine the molecular dynamics after attachment of the ligand IFN-γ to the receptor. […]

[5] = target: T3, IFN-γR1/EBFP and IL-10R2/GFP; assay: FRET between mismatched receptor pair IFN-γR1/EBFP and IL-10R2/GFP in COS-1 cells; assay type: cell-based; settings: two-photon excitation at 760 nm; FIG. 7
Text: as §2, with “IFN-γR2/GFP. In this way, the BFP and GFP were fused to the intracellular domains of IFN-γR1 and IFN-γR2, respectively (FIG. 2), to monitor interactions among these two receptor chains in intact cells-with and-without IFN-γ treatment.” for “IFN-γR2/GFP.”

| Molecule | MHC class I antigen induction [1] | effect on CHO cells (CHO cells) | change in FRET spectrum in the presence of IFN-γ [2] | change in FRET spectrum in the presence of IFN-γ [3] | effect on the FRET of the matched receptor pair ([4]; IFN-γ 3500 units/ml added to medium, two-photon excitation at 760 nm, FIG. 8) | FRET signal after treatment of cells with IFN-γ ([4]; single COS-1 cell expressing IFN-γR1 and IFN-γR2 fused to BFP and GFP, excited at 760 nm, FIGS. 12 and 13) | effect on the fluorescence spectrum of the mismatched pair [5] |
| --- | --- | --- | --- | --- | --- | --- | --- |
| IFN-γ: protein secreted by lymphocytes, specifically T-cells and NK-cells; ligand of the IFN-γ receptor complex | as effective as that of hamster IFN-γ | no effect | no change in the spectrum |  |  |  |  |
| B1 |  |  |  | large change in the spectrum | major reduction in the FRET | almost completely abolished | did not affect the spectrum |
